Laboratory results published in the supplement of paper PMC10567573.

B1: C2orf65 (parent)
chain: QLDWDELETNQQHFHALCHSLLVS
B2: SLC19A2 (parent)
chain: FHHIPSTCQRVNGIKVQNGGIVTD

Variants of: B1
Assay: protein stability index of a GFP-peptide fusion (GPS, HEK-293T) (PSI 1-6); higher = more stable
Conditions: c terminus: a fixed tail appended
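Note: lentivirally expressed fusions sorted by FACS into six bins by GFP to DsRed ratio, PSI derived from sequencing read proportions per bin multiplied by bin number.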

Protein stability index: each site, then its substitutions
Q12: C 2.06 | D 2.37 | E 2.43 | F 1.45 | G 2.69 | H 1.92 | I 2.55 | K 1.84 | L 1.67 | M 1.83 | N 2.1 | P 2.73 | R 2.37 | S 2.62 | T 2.13 | V 2.17 | W 2.6 | Y 1.48
H13: A 2.16 | C 2.31 | D 2.37 | E 2.89 | F 2.15 | G 2.39 | I 1.71 | K 2.02 | L 1.99 | M 1.65 | N 2.35 | P 2.63 | Q 2.36 | R 1.88 | S 1.98 | T 2.51 | V 1.85 | W 1.55 | Y 2.5
F14: A 3.53 | C 2.46 | D 3.95 | E 3.58 | G 3.51 | H 2.67 | I 2.48 | K 3.26 | L 2.75 | M 2.72 | N 3.19 | P 2.87 | Q 3.42 | R 2.44 | S 2.91 | T 3.32 | V 2.79 | W 2.18 | Y 2.34
H15: A 1.92 | C 1.66 | D 2.64 | E 2.78 | F 1.36 | G 2.48 | I 2.36 | K 2.42 | L 1.61 | M 2.33 | N 2.26 | P 2.12 | Q 1.72 | R 1.71 | S 1.85 | T 2.28 | V 2.39 | W 1.74 | Y 1.82
A16: C 2.31 | D 2.58 | E 3.07 | F 2.44 | G 2.41 | H 2.35 | I 2.2 | K 2.91 | L 1.63 | M 1.95 | N 1.95 | P 2.43 | Q 2.27 | R 2.22 | S 2.33 | T 1.57 | V 1.86 | W 1.53 | Y 3.02
L17: A 2.75 | C 2.58 | D 4.07 | E 3.69 | F 1.9 | G 2.43 | H 2.6 | I 2.14 | K 2.69 | M 2.38 | N 3.12 | P 3.92 | Q 3.02 | R 2.68 | S 2.58 | T 3.57 | V 1.74 | W 2.21 | Y 2.05
C18: A 2.11 | D 3.62 | E 3.64 | F 2.27 | G 2.2 | H 2.65 | I 1.66 | K 3.2 | L 1.35 | M 2.11 | N 2.96 | P 2.99 | Q 2.76 | R 2.48 | S 2.88 | T 2.25 | V 2.21 | W 2.14 | Y 2.36
H19: A 1.88 | C 2.21 | D 2.94 | E 2.93 | F 1.69 | G 2.17 | I 1.79 | K 2.15 | L 1.04 | M 1.66 | N 2.17 | P 2.65 | Q 2.67 | R 1.94 | S 2.07 | T 2.02 | V 1.96 | W 1.04 | Y 1.94
S20: A 1.79 | C 1.5 | D 2.98 | E 1.93 | F 1.43 | G 2.21 | H 2.57 | I 2.13 | K 2.04 | L 2.19 | M 2.27 | N 2.61 | P 2.33 | Q 2.03 | R 1.91 | T 1.95 | V 2.33 | W 1.9 | Y 2.05
L21: A 3.23 | C 1.61 | D 3.83 | E 3.87 | F 2.31 | G 3.04 | H 2.87 | I 2.06 | K 2.94 | M 2.28 | N 3.01 | P 2.95 | Q 2.91 | R 3.15 | S 3.09 | T 2.93 | V 3.04 | W 2.22 | Y 2.37
L22: A 3.29 | C 2.58 | D 3.77 | E 3.38 | F 2.21 | H 2.69 | I 2.95 | K 2.37 | M 3.01 | N 2.69 | P 3.16 | Q 2.81 | R 2.96 | S 2.58 | T 3.08 | V 2.34 | W 1.64 | Y 2.44
V23: A 2.68 | C 2.09 | D 3.38 | E 2.68 | F 1.69 | G 3.26 | H 2.36 | I 1.96 | K 2.45 | L 1.92 | M 1.99 | N 2.75 | P 2.95 | Q 2.48 | R 2.01 | S 2.63 | T 2.35 | W 1.57 | Y 2.27
S24: A 2.11 | C 2.18 | D 3.08 | E 2.11 | F 1.7 | G 1.78 | H 2.33 | I 2.99 | K 2.27 | L 2.73 | M 2.02 | N 2.25 | P 2.5 | Q 2.04 | R 2.1 | T 1.89 | V 1.56 | W 1.38 | Y 2.54

Variants of: B2
Assay: as above
Conditions: c terminus: a fixed tail appended

Protein stability index, by site and new letter:
F1: A 3.95 | C 3.84 | D 4.42 | E 4.27 | G 3.78 | H 3.53 | I 3.46 | K 2.78 | L 2.81 | M 3.33 | N 3.25 | P 3.84 | Q 3.71 | R 3.64 | S 3.48 | T 3.66 | V 4.14 | W 1.85 | Y 2.5
H2: A 2.73 | C 2.28 | D 3.31 | E 3.65 | F 2.03 | G 3.01 | I 2.04 | K 2.52 | L 2.21 | M 2.47 | N 3.73 | P 3.26 | Q 2.83 | R 2.61 | S 3.17 | T 2.4 | V 2.35 | W 3 | Y 1.85
H3: A 2.22 | C 1.92 | D 3 | E 2.53 | F 1.39 | G 2.31 | I 1.59 | K 2.79 | L 1.96 | M 2.8 | N 2.25 | P 2.03 | Q 1.71 | R 2.53 | S 1.33 | T 2.06 | V 3.16 | W 2.18 | Y 2.11
I4: A 2.11 | C 1.67 | D 2.91 | E 2.77 | F 3.14 | G 2.48 | H 1.85 | K 1.94 | L 2.37 | M 2.01 | N 2.07 | P 2.37 | Q 2.1 | R 2.02 | S 3.05 | T 2 | V 1.67 | Y 2.67
P5: A 1.97 | C 1.86 | D 2.71 | E 2.83 | G 2.12 | H 1.79 | I 1.97 | K 2.61 | L 1.86 | M 2.23 | N 2.11 | Q 1.89 | R 1.58 | S 3.55
